Measured values: paper PMC12685370, “Loop-mediated regulation and base flipping drive RNA cleavage by human mitochondrial PNPase” (Nucleic Acids Research, 2025)

Assays:
[1] = molecular target: T1, hPNPase (human polynucleotide phosphorylase), hPNPase-TS (Homo sapiens, UniProt Q8TCS8); experiment: cryo-EM structure; type: binding; settings: 2 mM NaH2PO4, 2 mM MgCl2, pH 8.0; active site of PH2 domain (S482-484, H450, R446), no RNA; co-substrate of phosphorolysis; also in 9NO0 with PT5 RNA
T1 construct: gene PNPT1; residues 46-783, mitochondrial targeting signal removed, C-terminal Twin-Strep-tag kept, expressed in MEXi-293E cells, homotrimer
T1 sequence (Q8TCS8 46-783): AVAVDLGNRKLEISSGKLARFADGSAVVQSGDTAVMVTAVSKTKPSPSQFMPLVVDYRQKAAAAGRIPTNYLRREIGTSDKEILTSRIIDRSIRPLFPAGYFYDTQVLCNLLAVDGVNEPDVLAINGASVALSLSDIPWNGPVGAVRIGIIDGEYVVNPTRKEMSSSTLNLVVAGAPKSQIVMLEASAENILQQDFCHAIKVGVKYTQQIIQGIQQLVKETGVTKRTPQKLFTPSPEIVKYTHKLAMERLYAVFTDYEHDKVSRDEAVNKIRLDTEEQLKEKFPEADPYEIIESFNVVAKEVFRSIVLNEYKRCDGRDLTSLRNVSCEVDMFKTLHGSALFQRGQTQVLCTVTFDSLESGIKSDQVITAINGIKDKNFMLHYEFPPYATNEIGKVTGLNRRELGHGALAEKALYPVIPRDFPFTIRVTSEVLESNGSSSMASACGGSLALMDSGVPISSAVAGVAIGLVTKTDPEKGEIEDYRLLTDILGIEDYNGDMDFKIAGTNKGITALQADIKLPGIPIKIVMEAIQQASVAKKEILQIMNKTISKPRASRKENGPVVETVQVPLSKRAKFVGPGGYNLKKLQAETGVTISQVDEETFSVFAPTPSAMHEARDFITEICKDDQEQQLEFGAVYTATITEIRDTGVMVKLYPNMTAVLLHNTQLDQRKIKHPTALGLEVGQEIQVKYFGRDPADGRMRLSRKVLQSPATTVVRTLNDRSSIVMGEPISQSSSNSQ

[2] = molecular target: T2, hPNPase (human mitochondrial polynucleotide phosphorylase) (Homo sapiens, UniProt Q8TCS8 46-783); experiment: cryo-EM structure; sulfate in place of phosphate, Mg2+; pre-catalytic state, 2.2 A, 6 nt modelled; Protein SEC buffer: 20 mM HEPES-NaOH pH 8.0, 150 mM NaCl, 1 mM MgCl2, 1 mM DTT, 1% glycerol; competition as in RNA degradation assay (conditions not in material); sulfate 2 mM in the assay replacing phosphate; settings: protein: recombinant; tags: C-terminal Twin-Strep-tag; chain copies: 3; label: 5'-FAM; single strand
T2 sequence: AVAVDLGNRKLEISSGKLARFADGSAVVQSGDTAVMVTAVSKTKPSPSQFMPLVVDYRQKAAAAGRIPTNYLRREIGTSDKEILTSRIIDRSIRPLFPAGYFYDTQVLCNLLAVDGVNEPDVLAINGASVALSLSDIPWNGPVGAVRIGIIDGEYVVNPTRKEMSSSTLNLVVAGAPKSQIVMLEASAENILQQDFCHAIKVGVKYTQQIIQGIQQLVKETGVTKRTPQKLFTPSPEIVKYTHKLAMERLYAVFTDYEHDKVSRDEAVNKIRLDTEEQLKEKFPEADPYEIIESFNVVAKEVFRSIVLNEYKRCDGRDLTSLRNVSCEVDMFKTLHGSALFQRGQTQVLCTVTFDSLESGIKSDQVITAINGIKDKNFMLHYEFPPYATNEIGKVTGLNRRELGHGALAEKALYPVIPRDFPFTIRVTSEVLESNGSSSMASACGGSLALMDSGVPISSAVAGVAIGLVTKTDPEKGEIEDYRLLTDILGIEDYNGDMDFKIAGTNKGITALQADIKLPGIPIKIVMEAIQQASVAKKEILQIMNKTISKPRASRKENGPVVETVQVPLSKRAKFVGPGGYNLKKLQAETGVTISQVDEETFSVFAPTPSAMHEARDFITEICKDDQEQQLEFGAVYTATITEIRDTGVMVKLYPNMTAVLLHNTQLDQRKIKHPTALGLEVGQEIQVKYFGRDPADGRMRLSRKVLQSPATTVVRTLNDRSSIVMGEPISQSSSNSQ

[3] = molecular target: the molecule itself; experiment: cryo-EM structure; single-particle cryo-EM of 1.5 uM hPNPase-TS in RNA degradation buffer (10 mM HEPES pH 8.0, 50 mM NaCl, 2 mM MgCl2, 2 mM DTT, 2 mM NaH2PO4); apo (with Pi), RNA loading state (PT5 RNA) and pre-catalytic state (10 mM Na2SO4, 0.1 mM NaH2PO4, RNA); refined in C1

With `O=P(O)(O)O` [Pi, phosphate] the cryo-EM structure [1] was “The phosphate ion is present in each protomer and coordinated by S482-484, H450, and R446”.

B1: FAM_PNP_RNA_long (ssRNA)
RNA: CACAACACACACCACACACACAUAAAACAAAACAGCUACGCCAUCCUCCCCCCAAUCUA
B1: binds [2].

B2: human polynucleotide phosphorylase (hPNPase), amino acids 46-783, with C-terminal Twin-Strep-tag (enzyme, UniProt Q8TCS8 46-783, looked up)
chain: AVAVDLGNRKLEISSGKLARFADGSAVVQSGDTAVMVTAVSKTKPSPSQFMPLVVDYRQKAAAAGRIPTNYLRREIGTSDKEILTSRIIDRSIRPLFPAGYFYDTQVLCNLLAVDGVNEPDVLAINGASVALSLSDIPWNGPVGAVRIGIIDGEYVVNPTRKEMSSSTLNLVVAGAPKSQIVMLEASAENILQQDFCHAIKVGVKYTQQIIQGIQQLVKETGVTKRTPQKLFTPSPEIVKYTHKLAMERLYAVFTDYEHDKVSRDEAVNKIRLDTEEQLKEKFPEADPYEIIESFNVVAKEVFRSIVLNEYKRCDGRDLTSLRNVSCEVDMFKTLHGSALFQRGQTQVLCTVTFDSLESGIKSDQVITAINGIKDKNFMLHYEFPPYATNEIGKVTGLNRRELGHGALAEKALYPVIPRDFPFTIRVTSEVLESNGSSSMASACGGSLALMDSGVPISSAVAGVAIGLVTKTDPEKGEIEDYRLLTDILGIEDYNGDMDFKIAGTNKGITALQADIKLPGIPIKIVMEAIQQASVAKKEILQIMNKTISKPRASRKENGPVVETVQVPLSKRAKFVGPGGYNLKKLQAETGVTISQVDEETFSVFAPTPSAMHEARDFITEICKDDQEQQLEFGAVYTATITEIRDTGVMVKLYPNMTAVLLHNTQLDQRKIKHPTALGLEVGQEIQVKYFGRDPADGRMRLSRKVLQSPATTVVRTLNDRSSIVMGEPISQSSSNSQ
notes: human polynucleotide phosphorylase (hPNPase), amino acids 46-783, without the N-terminal mitochondrial targeting signal; gene codon optimized for human cell lines; S1 domain not modelled in the structures; Cloned into the vector pDSG103 (IBA); Homotrimer in all cryo-EM reconstructions; also called hPNPase-TS; human mitochondrial PNPase; source: MEXi-293E cells, transfected, purified …
For B2, the “stoichiometry N” value [3] was 3.
